We go through 167 variants from article PMC12212125, “Constitutively active Arabidopsis cryptochrome two alleles identified using yeast selection and deep mutational scanning” (The Journal of Biological Chemistry, 2025).

The chains are these.
B1: Arabidopsis thaliana cryptochrome 2 (CRY2, UniProt Q96524), residues 1-535 fused after the Gal4 DNA-binding domain (Gal4BD-CRY2(535)); mutagenized window 321-412, Q96524 (parent)
chain: MKMDKKTIVWFRRDLRIEDNPALAAAAHEGSVFPVFIWCPEEEGQFYPGRASRWWMKQSLAHLSQSLKALGSDLTLIKTHNTISAILDCIRVTGATKVVFNHLYDPVSLVRDHTVKEKLVERGISVQSYNGDLLYEPWEIYCEKGKPFTSFNSYWKKCLDMSIESVMLPPPWRLMPITAAAEAIWACSIEELGLENEAEKPSNALLTRAWSPGWSNADKLLNEFIEKQLIDYAKNSKKVVGNSTSLLSPYLHFGEISVRHVFQCARMKQIIWARDKNSEGEESADLFLRGIGLREYSRYICFNFPFTHEQSLLSHLRFFPWDADVDKFKAWRQGRTGYPLVDAGMRELWATGWMHNRIRVIVSSFAVKFLLLPWKWGMKYFWDTLLDADLECDILGWQYISGSIPDGHELDRLDNPALQGAKYDPEGEYIRQWLPELARLPTEWIHHPWDAPLTVLKASGVELGTNYAKPIVDIDTARELLAKAISRTREAQIMIGAAPDEIVADSFEALGANTIKEPGLCPSVSSNDQQVPSAV

The experiment covers variants of B1. Briefly: yeast two-hybrid growth selection (MaV203; Gal4BD-CRY2(1-535) library x Gal4AD-CIB1; URA3 reporter on SC -Trp/-Leu/-Ura) in the dark, deep sequencing before and after selection, Enrich2 scoring; three independent screens (one at 48 h, two …). Particulars: with CIB1 (CRYPTOCHROME-INTERACTING BASIC-HELIX-LOOP-HELIX 1), dark (no blue light), screens 1, 3 and 4, Svar > 0 = enriched under dark selection for CRY2-CIB1 two-hybrid growth (URA3 reporter), < 0 = depleted, relative to wild type (whose scores are 0). 'The Enrich2 software calculates, parent: 0, not an affinity, scale: Enrich2 score, numbering: uniprot, sequence starts at 1.
Turning to I400N, the enrichment is -0.48. As to I400T, the enrichment was -0.933. I400S: the enrichment was -0.343. With I400F, the enrichment is 1.95. Turning to I400L, the enrichment is -0.846. Next, I400Y: 1.86. The result for I400V reads -0.353; that for I400M, 0.868. Regarding G344V, the enrichment is -1.21. For G344R, the enrichment is -0.722.

Consider G344E, for which the enrichment is -0.724.

In the case of D389V, the enrichment is -0.759.

As to D389Y, the enrichment is -0.572. D389G: the enrichment was -1.23. Regarding D389E, the enrichment is -0.54. As to D389A, the enrichment is -0.573. The result for D389N reads -0.535; that for K379A, 1.5; that for K379E, -0.743. For the variant K379Q, the enrichment is -0.304. In the case of K379T, the enrichment was 0.481. On to K379N, for which the enrichment was -0.188. With K379R, the enrichment was 0.0968. On to K379M, for which the enrichment is -1.02. For the variant K379L, the enrichment was 0.965. For the variant E391G, the enrichment is -1.1. Next, E391A: -0.592. Consider E391K, for which the enrichment is -0.425. As for E391Q, the enrichment is -0.786. With E391D, the enrichment was -0.531. Regarding E391V, the enrichment is -0.645.

With Y380S, the enrichment is -0.827.

Consider Y380N, for which the enrichment was -1.37. Regarding Y380F, the enrichment is 1.2. As for Y380D, the enrichment was -0.763. Turning to Y380H, the enrichment is -0.297.

For Y380C, the enrichment was -0.0376. For the variant K368N, the enrichment is 2.25. For the variant K368M, the enrichment is 2.28.

Take K368R: the enrichment was 0.246. K368D: the enrichment is 3.06. Take K368T: the enrichment was 2.52.

In the case of K368V, the enrichment is 1.84. In the case of K368E, the enrichment was 2.88. Next, K368Q: 2.29; K368S: 1.76; G402V: -0.0472.

In the case of G402K, the enrichment was 2.35. G402R: the enrichment was 1.69. Consider G402W, for which the enrichment was -0.485. As to G402E, the enrichment was 0.772. Consider L371S, for which the enrichment is 1.98. As for L371V, the enrichment is 1.25. As to L371H, the enrichment was 2.16. For L371R, the enrichment is 1.98. The result for L371F reads 3.11. Next, L371I: -0.7. Next, L371P: -1.4; H355P: 0.249; H355L: -0.0587. For the variant H355R, the enrichment was 0.547. On to H355Y, for which the enrichment was -0.714. The result for H355Q reads -0.322. As for H355D, the enrichment is -1.37. In the case of T384K, the enrichment is -0.721. With T384S, the enrichment is 0.274.

In the case of T384P, the enrichment was -1.14. As to T384I, the enrichment was -0.949. For T384A, the enrichment is 0.177.

For M345T, the enrichment is -1.83. On to M345I, for which the enrichment was -0.745. As for M345V, the enrichment is -1.49. In the case of M345R, the enrichment is -1.12.

Consider M345K, for which the enrichment was -1.43. The result for M345L reads -0.395; that for G377R, -1.08; that for G377E, -0.85. The result for G377V reads -0.508; that for D383G, -0.813. Take D383V: the enrichment was -0.206.

On to D383N, for which the enrichment is -0.384. Turning to D383Y, the enrichment is -0.379. As for D383A, the enrichment was -0.952. Regarding D383E, the enrichment is -0.349. Next, L385I: 2.28; L385H: 2.39. For L385V, the enrichment was 2.7. L385R: the enrichment was -0.336.

Turning to L385P, the enrichment is -1.22. With L385F, the enrichment is 2.61. The result for D387E reads -1.15; that for D387Y, -0.867. For D387N, the enrichment was -0.788. On to D387A, for which the enrichment is -0.921.

As to D387V, the enrichment was -0.792. Regarding D387H, the enrichment was -0.974. As to D387G, the enrichment is -1.18. Take R357S: the enrichment is 2.1. Next, R357I: -0.511; R357G: 2.16; R357K: 0.845. V360L: the enrichment is 0.412. Regarding V360A, the enrichment was 0.0306. The result for V360G reads -1.05. As for V360E, the enrichment was 0.367. Next, W353C: -0.321; W353G: -0.0561; W353R: -1.15. In the case of W353L, the enrichment was -0.339.

As for W353S, the enrichment is -0.64. As for R359G, the enrichment is -0.386.

With R359S, the enrichment was -0.603.

On to R359I, for which the enrichment is -0.665. Turning to T351P, the enrichment was -0.191.

For the variant T351S, the enrichment is -0.0139.

As for T351N, the enrichment was -0.315.

On to T351A, for which the enrichment was -1.04. For the variant Y399S, the enrichment was 2.82. In the case of Y399I, the enrichment was 2.5. For Y399N, the enrichment is 2.41.

In the case of Y399F, the enrichment was 1.58.

Take Y399D: the enrichment was 1.99. Consider Y399C, for which the enrichment was 1.43. With Y399H, the enrichment was 1.23. The result for I394S reads 0.694; that for I394N, 2.39; that for I394F, 2.63. Take I394L: the enrichment is 2.29. Next, I394Y: 1.45; I394V: 0.326; I394A: 1.15. As to I394M, the enrichment was 1.08. Consider I394T, for which the enrichment is 0.588. For W382G, the enrichment was 0.784. As to W382L, the enrichment is -0.17. The result for W382C reads -0.025; that for W382R, -1.18; that for D342Y, -1.02. Regarding D342N, the enrichment is -0.898. Turning to D342A, the enrichment is -0.75. With D342E, the enrichment is -1.69. In the case of D342G, the enrichment was -1.84. As for D342V, the enrichment is -1.71.

For the variant S401Y, the enrichment was 0.744. In the case of S401T, the enrichment is 2.02.

For the variant S401A, the enrichment is -0.239. On to S401F, for which the enrichment is 2.4. Take S401L: the enrichment is 2.46. S401P: the enrichment is -0.107. For R346S, the enrichment was -1.36. In the case of R346G, the enrichment was -1.54. On to R346I, for which the enrichment is -1.1.

For R346K, the enrichment is 0.452. Turning to G352E, the enrichment was -0.327.

In the case of G352A, the enrichment is -1.47.

Turning to G352R, the enrichment was -0.844. For W397G, the enrichment is -0.823. On to W397S, for which the enrichment is -1.08. W397L: the enrichment was -0.429. Next, W397C: -0.144; W397R: -1.01. The result for A388V reads -0.153; that for A388P, -0.944; that for A388D, -0.472. A388T: the enrichment is -0.454. Turning to A388S, the enrichment is 0.429. For the variant A388G, the enrichment was -1.33.
